From the supplement of paper PMC9732359
± gives the uncertainty stated by the source.

Test: protein stability index of a GFP-peptide fusion (yeast GPS) (PSI 1-4); higher = more stable; sorted into four equal gates, so the index is relative within each strain
Procedure, shortened: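 Peptides tiling yeast proteins in 17-residue segments were fused downstream of GFP, with Cherry expressed from the same plasmid. As a pooled library in yeast, mid-log cultures grown in leucine-free medium were sorted into four equal gates by GFP/Cherry fluorescence ratio. Gate plasmids were PCR-amplified and Illumina-sequenced, and barcodes linked reads to strains. Each peptide received a protein stability index equal to the sum of each gate's read frequency times its gate number.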

| Sequence | protein stability index (doa10∆) | protein stability index (pdr5∆) | protein stability index (san1∆) | protein stability index (ubr1∆) |
| --- | --- | --- | --- | --- |
| EDTLSGYDPIVSTRAID [PRP28] | 2.51 ± 0.2 | 2.67 ± 0.12 | 3.13 ± 0.15 | 3.16 ± 0.093 |
| EDTNTKPLFDFGKTGDQ [YOR098C/NUP1] | 1.86 ± 0.25 |  |  |  |
| EDVALNEQVKKFFLNNV [NAS6] | 2.64 ± 0.047 | 2.5 ± 0.058 | 2.44 ± 0.051 | 2.88 ± 0.042 |
| EDVDDEELDITPLFPID [IRR1] | 2.99 ± 0.19 | 3.36 ± 0.15 | 3 ± 0.1 | 2.95 ± 0.075 |
| EDYPMSSEIKIYYNELQ [SIR4] | 1.95 ± 0.13 | 3.16 ± 0.13 | 2.53 ± 0.25 | 3.02 ± 0.079 |
| EEAKEEVTEEQAEATEW [RPS0A] | 3.48 ± 0.12 | 3.49 ± 0.1 | 3.02 ± 0.13 | 3.64 ± 0.091 |
| EEASQLIEYMENDAKKS [NUT1] | 2.95 ± 0.081 | 3.2 ± 0.067 | 3.15 ± 0.061 | 3.04 ± 0.048 |
| EEDDEGELEQAQAWINL [RPN7] | 3.58 ± 0.28 | 3.23 ± 0.11 | 3.43 ± 0.11 | 3.26 ± 0.058 |
| EEDISDLWNNFGNIMDN [RRP6] | 3.13 ± 0.078 | 2.98 ± 0.071 | 3.02 ± 0.052 | 3.02 ± 0.1 |
| EEGETSRPLKKVKILEQ [SWI3] | 3.01 ± 0.11 | 3.28 ± 0.092 | 2.86 ± 0.08 | 3.03 ± 0.053 |
| EEGINKFKKEKFDIIIV [SRP54] | 2.58 ± 0.05 | 2.61 ± 0.042 | 2.92 ± 0.043 | 2.69 ± 0.057 |
| EEKEESNLAATKSMVKI [RPN11] | 3.43 ± 0.12 | 3.41 ± 0.11 | 3.34 ± 0.059 | 3.35 ± 0.098 |
| EEKPGLIITRKAFKNNS [SMC4] | 2.89 ± 0.086 | 2.88 ± 0.097 | 2.82 ± 0.064 | 2.94 ± 0.079 |
| EELLAQYESQAPDGSAS [SWP82] | 3.02 ± 0.061 | 2.95 ± 0.084 | 3.13 ± 0.068 | 3.08 ± 0.046 |
| EELLQLFLNNFVSRIPI [IRR1] | 3.12 ± 0.058 | 2.74 ± 0.055 | 2.75 ± 0.054 | 2.7 ± 0.041 |
| EELRKHAQKRVSNASAR [SKI6] | 3.25 ± 0.23 | 3.22 ± 0.095 | 3.01 ± 0.11 | 2.89 ± 0.073 |
| EENGDSIKEHSTTMDGA [MED1] | 3.32 ± 0.19 |  | 3.21 ± 0.14 | 3.57 ± 0.14 |
| EENSSSNGNNLPLNKPR [RGR1] | 3.24 ± 0.044 | 3.29 ± 0.044 | 3.2 ± 0.041 | 3.26 ± 0.045 |
| EEQRSDTKNSKSESPSE [ISW2] |  | 3.21 ± 0.23 |  |  |
| EEREAAASKVKLEEESK [RPC53] | 3.29 ± 0.081 | 3.43 ± 0.095 | 3.37 ± 0.069 | 3.25 ± 0.063 |
| EESINEFKSIEIEMKNK [SMC4] | 3.32 ± 0.21 | 3.56 ± 0.17 | 3.31 ± 0.25 | 2.86 ± 0.097 |
| EESWEKVVEFAITHMID [SCL1] | 2.62 ± 0.087 | 2.92 ± 0.098 | 3.06 ± 0.083 | 2.91 ± 0.07 |
| EEVNRCYLRWQHLRNEH [SNF2] | 3.27 ± 0.07 | 3 ± 0.075 | 3.23 ± 0.071 | 3.05 ± 0.075 |
| EEYDDDDDNSNVDYYNV [SNF2] | 2.89 ± 0.067 | 2.93 ± 0.063 | 2.93 ± 0.042 | 3.06 ± 0.067 |
| EFDEQYGTRPLVLPPVV [SNF2] | 3.08 ± 0.071 | 2.69 ± 0.063 | 2.86 ± 0.061 | 2.53 ± 0.046 |
| EFFHLQHYLDTATAPRL [QCR6] | 2.98 ± 0.057 | 3.03 ± 0.043 | 2.72 ± 0.058 | 3 ± 0.069 |

| Sequence | protein stability index (doa10∆) | protein stability index (pdr5∆) | protein stability index (san1∆) | protein stability index (ubr1∆) |
| --- | --- | --- | --- | --- |
| EFKSIEIEMKNKLEKLN [SMC4] | 1.68 ± 0.058 | 1.51 ± 0.075 | 1.42 ± 0.19 | 1.37 ± 0.046 |
| EFLEDTSRTIVRNVKGP [RPS28A] |  |  | 3.15 ± 0.29 | 3.03 ± 0.16 |
| EFLKWTPNVNVLVLHGD [ISW2] | 1.69 ± 0.064 | 1.69 ± 0.06 | 1.53 ± 0.12 | 1.84 ± 0.082 |
| EFLPLSLHILMIFWNDI [SRB8] | 1.36 ± 0.037 | 1.34 ± 0.04 | 1.35 ± 0.062 | 1.89 ± 0.036 |
| EFTENELNVDSMDVDDK [ITC1] | 3.18 ± 0.16 | 3.24 ± 0.19 | 3.31 ± 0.11 | 3.25 ± 0.093 |
| EFTKINTPLVGAAFKVI [YJL039C/NUP192] | 1.63 ± 0.039 | 1.91 ± 0.044 | 1.6 ± 0.084 | 1.69 ± 0.037 |
| EFVHKYLGEGPRMVRDV [RPT3] | 3.39 ± 0.14 | 3.43 ± 0.084 | 3.14 ± 0.062 | 3.17 ± 0.077 |
| EGDFLKSIIGKLTAERA [POP1] | 1.63 ± 0.14 | 3.23 ± 0.082 | 2.1 ± 0.11 | 3.03 ± 0.12 |
| EGHDWKAPTKLDDPEAV [DIS3] | 3.31 ± 0.057 | 3.28 ± 0.054 | 3.23 ± 0.041 | 3.25 ± 0.046 |
| EGIKETQAKRIFLQQFL [SWI1] | 2.37 ± 0.12 | 2.75 ± 0.14 | 2.74 ± 0.086 | 2.26 ± 0.066 |
| EGLNQRNQVQTENVAQA [YGR119C/NUP57] | 2.96 ± 0.12 | 2.89 ± 0.16 | 2.77 ± 0.095 | 2.65 ± 0.06 |
| EGNEKLAAVPAAGPASA [RPP2A] | 2.06 ± 0.061 | 2.23 ± 0.063 | 2.17 ± 0.09 | 2.79 ± 0.063 |
| EGSTIRYLAVTLQDIGF [YMR129W/POM152] | 2.5 ± 0.048 | 2.58 ± 0.04 | 2.52 ± 0.052 | 2.71 ± 0.041 |
| EHEEKEKERETNKKGIK [RPN2] | 3.32 ± 0.24 | 3.36 ± 0.1 | 3.33 ± 0.16 | 3.4 ± 0.25 |
| EIDDFNDIDDLDMELAE [SEC65] | 2.68 ± 0.1 | 3.11 ± 0.11 | 2.89 ± 0.089 | 3.22 ± 0.12 |
| EIDPLTGMPISNDPDVN [BRN1] |  |  | 2.87 ± 0.13 | 3.03 ± 0.085 |
| EIDTILSTLRMEADPSL [RPN9] | 3.04 ± 0.24 | 3.04 ± 0.21 | 2.56 ± 0.13 | 2.67 ± 0.087 |
| EIFIRCNNVLYIRELPN [SMX3] |  | 1.75 ± 0.18 | 1.53 ± 0.12 | 1.48 ± 0.12 |
| EIGGSDLKESMVKGLLK [ECM29] | 2.63 ± 0.23 | 3.53 ± 0.16 |  | 2.76 ± 0.21 |
| EILEKCAEGIFVVKLDT [GAL11] |  |  |  | 3.72 ± 0.28 |
| EILVTELTAQGYDPALL [RPN2] | 2.8 ± 0.27 | 3.36 ± 0.15 |  | 3.28 ± 0.1 |
| EINSEDYDNKTKLIGVL [SRP68] | 3.2 ± 0.15 | 3.04 ± 0.18 | 3.25 ± 0.076 | 3.02 ± 0.12 |
| EINSEMCHIVRKFHELN [GRR1] | 2.4 ± 0.057 | 2.81 ± 0.063 | 2.85 ± 0.064 | 2.44 ± 0.05 |
| EINYAFSMDEEFKNMDC [SIR3] | 3.09 ± 0.068 | 3.14 ± 0.053 | 3.22 ± 0.04 | 3.25 ± 0.048 |
| EITDASLNLQYVNYEIS [YML103C/NUP188] | 2.62 ± 0.05 | 2.96 ± 0.067 | 2.31 ± 0.072 | 2.79 ± 0.049 |
| EIYKQLNDRQEEISRLQ [YIL149C/MLP2] | 3.42 ± 0.08 | 3.57 ± 0.078 | 3.6 ± 0.041 | 3.38 ± 0.07 |
